The text below walks through data of publication PMC5650642.

The target in data set [1] is T1, His-OpaR (Vibrio parahaemolyticus RIMD2210633) (UniProt Q79YV4).
T1 sequence: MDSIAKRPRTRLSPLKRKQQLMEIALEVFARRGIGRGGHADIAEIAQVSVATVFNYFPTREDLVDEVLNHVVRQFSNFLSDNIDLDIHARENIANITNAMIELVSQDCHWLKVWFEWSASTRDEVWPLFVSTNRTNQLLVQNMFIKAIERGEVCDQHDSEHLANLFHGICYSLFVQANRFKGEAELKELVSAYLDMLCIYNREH
The experiment in a line: DNase I footprinting.

Data set [2] addresses His-ToxR (Vibrio parahaemolyticus RIMD2210633) (UniProt Q05938). In words: DNase I footprinting.
Sequence of UniProt Q05938 (Q05938 1-176): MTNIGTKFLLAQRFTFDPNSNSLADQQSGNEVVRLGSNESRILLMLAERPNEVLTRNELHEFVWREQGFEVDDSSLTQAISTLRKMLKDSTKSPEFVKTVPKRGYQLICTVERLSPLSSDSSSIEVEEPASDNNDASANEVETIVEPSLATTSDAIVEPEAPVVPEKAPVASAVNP

“ACACTTTGCACTCTTTTATGGAACAAATATTATTAGACCGAAATAATATTTGCTGAAACATCCTTGTTTCAAGGGTAGTATTTAAAACGAACAGTAAGCCTATTATTTTAGTTATAATTACTAAGTTATTAGACTCTTTGACTTACGCTTTCACTACCTGAATTACGTTGTTTTAGAAATTAAAATTTCAACAACGTAATATGACTTCATTTTCATTATATATTTCGACAAAGAATGATTAGCACGC (double strand) [VP1400 footprinting fragment]”: the binding entry in data set [1] and in data set [2] was “binds” each time. Regarding “ATTCTCCACAACCAACATCGTAAACATGGTTGCGGTGACGTTTAAGCTGATAAGGCTTACAAGTACGATTTGGTGTGCTAATGCTACTAATTTAATTCATAACATTCAATCACATAGAAAACTTCCAGAAAACCGAAATGCCCGAGAAATAACAAAACCACAGGTTATTTGGTTGTTTTAACTATCAATTCAAACTTATTACCCTTCAATCCAACTCAAAAGGCAGGCTTTAAGCAAAAACAGTTTTTTACTTTTGGGCAGAAGTTAACAAATTCAA (double strand) [VP1388 footprinting fragment]”, the binding entry in data set [1] is listed as “binds”. On to “CGCTTGGATTACTTTCATCGATCGGTCTTCTTGTGAAGTCGCTGAAAAACATAATGTTAAGTTCCAACTGAGTTGATAATAAAATAATAAAGATAGATTTTTTTATTGTATTCGCCTGCTATGCCAAATGACATGCAATGCATTTTTTCTGATTTTATAGATAAAAAAAGATTTTTAGACAATAAAAAGCCGATAAATCTAATTAAAATCCATTTTGTGTGATCTTTGTTCCTAAT (double strand) [VP1409 footprinting fragment(s)]”, for which the binding result in data set [1] and in data set [2] was “binds” throughout.
